Measurements reported in US20140348862.

What was measured:
Test in all cases: competition, FACS 4C
Conditions in all cases: modification not given
[1] = target: HLA-B*3501 (human), P01889
[2] = target: HLA-B*3501 (human), P01889; remark: listed apart in the source
[3] = target: HLA-B*3501 (human), P01889; remark: listed apart in the source
HLA-B7 (human), P01889 = target: HLA-B7 (human), P01889

B1: PRAME 499-507 (peptide)
chain: EPILCPCFM
In the case of B1, the IC50 [1] is reported as 0.32 µM and the IC50 [2] is reported as < 1 µM.

B2: PRAME 246-255 (peptide)
chain: LPTLAKFSPY
B2 was tested, and the IC50 [1] was < 1 µM and the IC50 [3] was 0.11 µM.

B3: PRAME 170-178 (peptide)
chain: QPFIPVEVL
With B3 the IC50 [1] was 2.83 µM.

B4: PRAME 173-181 (peptide)
chain: IPVEVLVDL
For B4, the IC50 [1] was 2.24 µM.

B5: PRAME 53-61 (peptide)
chain: FPPLFMAAF
For B5, the IC50 [1] was < 1 µM.

B6: PRAME 113-122 (peptide)
chain: RPRRWKLQVL
With B6 the IC50 (HLA-B7 (human), P01889) was < 1 µM.

B7: PRAME 48-56 (peptide)
chain: LPRELFPPL
In the case of B7, the IC50 [1] is reported as < 1 µM.

B8: PRAME 48-57 (peptide)
chain: LPRELFPPLF
For B8, the IC50 [1] was 1.58 µM.

B9: PRAME 253-262 (peptide)
chain: SPYLGQMINL
Work on B9 yielded an IC50 [1] of 1.98 µM.

B10: PRAME 186-194 (peptide)
chain: GACDELFSY
For B10, the IC50 [1] was 2.6 µM.
